Data: paper PMC8999356, “In Vitro One-Pot 3-Hydroxypropanal Production from Cheap C1 and C2 Compounds” (International Journal of Molecular Sciences, 2022)

Legend:
[1] = substrate: CC=O; experiment: aldol condensation, 3-HPA quantified by HPLC after O-benzylhydroxylamine derivatisation, Michaelis-Menten fit; assay type: biochemical, Thermotoga maritima; details: co-substrate formaldehyde, 20 mM Kpi pH 7.0, 40 °C
[2] = substrate: C=O; experiment: as above; assay type: biochemical, Thermotoga maritima; details: co-substrate acetaldehyde, 20 mM Kpi pH 7.0, 40 °C

B1: DERATma (Thermotoga maritima MSB8) (protein)
chain: MIEYRIEEAVAKYREFYEFKPVRESAGIEDVKSAIEHTNLKPFATPDDIKKLCLEARENRFHGVCVNPCYVKLAREELEGTDVKVVTVVGFPLGANETRTKAHEAIFAVESGADEIDMVINVGMLKAKEWEYVYEDIRSVVESVKGKVVKVIIETCYLDTEEKIAACVISKLAGAHFVKTSTGFGTGGATAEDVHLMKWIVGDEMGVKASGGIRTFEDAVKMIMYGADRIGTSSGVKIVQGGEERYGG
Km [1]: 6.95 mM
kcat [1]: 0.0085 s⁻¹
Km [2]: 2.41 mM
kcat [2]: 0.00817 s⁻¹
